Results from patent publication US20250277030A1 (Zymeworks, published 2025).

Columns and labels:
[1] = molecular target: T1, human sodium-dependent phosphate transporter 2B (NaPi2b) (human, UniProt O95436 1-690); assay: flow cytometry, IGROV-1 cells (endogenous NaPi2b); apparent Kd
T1 construct: UniProt ID is given as 095436 [sic]; also called hNaPi2b; Hu NaPi2b
T1 sequence: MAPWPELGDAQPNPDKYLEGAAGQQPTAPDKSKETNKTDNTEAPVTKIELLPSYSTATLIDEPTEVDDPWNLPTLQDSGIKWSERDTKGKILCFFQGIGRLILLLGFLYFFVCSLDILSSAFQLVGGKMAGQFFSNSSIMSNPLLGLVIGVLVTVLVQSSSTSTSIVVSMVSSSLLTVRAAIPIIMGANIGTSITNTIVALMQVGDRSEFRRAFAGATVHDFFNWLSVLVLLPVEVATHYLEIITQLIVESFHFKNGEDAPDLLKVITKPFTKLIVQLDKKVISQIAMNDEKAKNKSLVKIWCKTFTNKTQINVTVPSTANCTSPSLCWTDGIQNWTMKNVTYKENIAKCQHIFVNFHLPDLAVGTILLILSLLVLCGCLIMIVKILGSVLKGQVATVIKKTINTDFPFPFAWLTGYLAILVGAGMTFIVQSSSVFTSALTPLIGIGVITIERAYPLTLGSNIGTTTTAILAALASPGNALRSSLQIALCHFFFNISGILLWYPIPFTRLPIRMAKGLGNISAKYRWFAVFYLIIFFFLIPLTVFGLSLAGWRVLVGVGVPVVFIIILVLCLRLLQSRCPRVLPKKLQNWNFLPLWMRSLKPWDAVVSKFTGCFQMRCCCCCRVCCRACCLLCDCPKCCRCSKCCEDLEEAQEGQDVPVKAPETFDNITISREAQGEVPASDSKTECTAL
Protocol: (§1) Briefly, cells were seeded at 50,000 cells/well in conical-bottom 96-well plates and treated with test antibody for 24 hours at 4° C. to prevent internalization. […] Following incubation, cells were washed and stained with anti-Human IgG Fc AF647 conjugate (Jackson Immuno Research Labs, West Grove, PA; Cat. No. 109-605-098) at 4° C. for 30 min. Following incubation and washing, fluorescence was detected by flow cytometry on a BD LSRFortessa™ Cell Analyzer (BD Biosciences, Franklin Lake, NJ) with 1,000 minimum events collected per well. The AF647/APC-A GeoMean (fluorescence signal geometric mean, proportional to anti-Human AF647 binding) was calculated for the live cell population using FlowJo™ Version 10.8.1 (BD Biosciences, Franklin Lake, NJ) and plotted for each test antibody using GraphPad Prism Version 9 (GraphPad Software, San Diego, CA).
(§2) The ability of the humanized antibody variants v38591 and v29456 to bind to NaPi2b expressed on cells was assessed on endogenous NaPi2b-expressing tumor cell lines IGROV-1 (ovarian adenocarcinoma) and TOV-21G (ovarian carcinoma) by flow cytometry.
(§3) Cellular binding was performed according to methods described in Example 13.

[2] = molecular target: T1, human sodium-dependent phosphate …; assay: flow cytometry on IGROV-1 cells (endogenous NaPi2b), 24 h at 4 C, anti-human IgG Fc AF647 detection
Protocol: as §1, §2, §3

[3] = molecular target: T1, human sodium-dependent phosphate …; assay: flow cytometry, TOV-21G cells (endogenous NaPi2b); apparent Kd
Protocol: as §1, §2, §3

[4] = molecular target: T1, human sodium-dependent phosphate …; assay: flow cytometry on TOV-21G cells (endogenous NaPi2b), 24 h at 4 C, anti-human IgG Fc AF647 detection
Protocol: as §1, §2, §3

[5] = molecular target: T2, FcgR1A (human, UniProt P12314 16-374); assay: Membrane Proteome Array screen, flow cytometry on HEK293T cells each expressing one of over 6000 human membrane proteins
T2 construct: whole, on cells
T2 sequence (P12314 16-374): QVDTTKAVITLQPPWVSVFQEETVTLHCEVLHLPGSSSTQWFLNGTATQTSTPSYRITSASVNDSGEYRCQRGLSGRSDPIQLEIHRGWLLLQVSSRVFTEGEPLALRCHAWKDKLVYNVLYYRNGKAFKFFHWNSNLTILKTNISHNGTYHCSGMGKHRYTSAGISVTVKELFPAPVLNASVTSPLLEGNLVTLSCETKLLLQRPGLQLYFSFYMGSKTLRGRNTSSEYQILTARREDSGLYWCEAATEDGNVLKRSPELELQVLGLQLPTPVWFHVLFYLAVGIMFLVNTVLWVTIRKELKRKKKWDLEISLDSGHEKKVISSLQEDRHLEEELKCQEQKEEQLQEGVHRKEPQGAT
Protocol: Briefly, the study consisted of three phases: phase (1) determination of assay screening conditions, phase (2) membrane proteome array (library) screen and phase (3) protein target validation. […] In phase (3), each protein target hit from the screen stage (potential off-target interactions) was assessed in titration experiment using flow cytometry.

[6] = molecular target: T1, human sodium-dependent phosphate …; assay: flow cytometry, HEK293-6e cells transfected with human NaPi2b; apparent Kd
Protocol: The binding cross-reactivity of humanized antibody variant v38591 to human NaPi2b, NaPi2a, and NaPi2c was assessed by flow cytometry using HEK293-6e transfected cells.
Following transfection, cells were seeded at 50,000 cells/well in conical-bottom 96-well plates and treated with test antibody for 24 hours at 4° C. to prevent internalization. Following incubation, cells were washed and stained with anti-Human IgG Fc AF647 conjugate (Jackson Immuno Research Labs, West Grove, PA; Cat. No. 109-605-098) or anti-Rabbit IgG F(ab″)2 AF647 conjugate (Jackson Immuno Research Labs, West Grove, PA; Cat. No. 111-605-047). Following incubation and washing, fluorescence was detected by flow cytometry on a BD LSRFortessa™ Cell Analyzer (BD Biosciences, Franklin Lake, NJ) with 1,000 minimum events collected per well. The AF647/APC-A GeoMean (fluorescence signal geometric mean, proportional to anti-Human AF647 binding) was calculated for the live cell population using FlowJo™ Version 10.8.1 (BD Biosciences, Franklin Lake, NJ) and plotted for each test antibody using GraphPad Prism Version 9 (GraphPad Software, San Diego, CA).

B1: v38591 humanized anti-NaPi2b antibody (antibody, human IgG1, kappa)
heavy: not shown
light: DVQMTQSPSSLSASVGDRVTITCRASQDVYSYLNWYQQKPGKAVKLLIYYTSRLQSGVPSRFSGSGSGTDYTLTISSLQPEDFATYYCQQYNIFPWTFGQGTKLEIKRTVAAPSVFIFPPSDEQLKSGTASVVCLLNNFYPREAKVQWKVDNALQSGNSQESVTEQDSKDSTYSLSSTLTLSKADYEKHKVYACEVTHQGLSSPVTKSFNRGEC
notes: also called humanized v38591 anti-NaPi2b (SLC34A2) variant
Kd [1]: 1.39 nM | EC50 (read off the curve) [2]: ~1 nM | Kd [3]: 0.74 nM | EC50 (read off the curve) [4]: ~0.7 nM | binding result [5]: binds | Kd [6]: 1.68 nM
